Measured values taken from paper PMC6406002, “Comparison of the functional properties of trimeric and monomeric CaiT of Escherichia coli” (Scientific Reports, 2019).

Molecular target: the molecule itself
Test: SEC; gel filtration (Superdex 10/300 GL) after incubation at given temperature for 60 min in 100 mM potassium phosphate pH 7.5, 2 mM β-mercaptoethanol, 0.04% DDM

B1: L-carnitine/γ-butyrobetaine antiporter CaiT of Escherichia coli, wild-type (natural protein)
chain: not shown
notes: CaiT, L-carnitine/γ-butyrobetaine antiporter of E. coli; the caiT gene cloned into pET21a; also called CaiT(WT); WT; source: E. coli JW0039 with pET21a/caiT, purified (Ni-NTA), in detergent (DDM)
- binding result: binds
